Measured values taken from the supplement of paper PMC9112550, “Optimization of the antimicrobial peptide Bac7 by deep mutational scanning” (BMC Biology, 2022).

What follows are sequences tested on Escherichia coli TOP10 (assay: shrunken log2 fold change of peptide-encoding DNA abundance (4.5 h post-induction vs induction); higher = less antimicrobial activity (less host growth inhibition)). Conditions: time post-induction: 4.5 h; library: site-saturation at positions 5, 18, 19, 20.
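Further: peptides expressed intracellularly from a pBAD plasmid library in pooled LB shake-flask culture, induced with 0.3% L-arabinose, DNA abundance read by NGS, three biological replicates, DESeq2 with apeglm shrinkage.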

Sequence | shrunken log2 fold change
RRIRSRPPRLPRPRPRPWLFPRP | -0.183
RRIRWRPPRLPRPRPRPKQEPRP | 0.0489
RRIRTRPPRLPRPRPRPWMLPRP | -0.0281
RRIRYRPPRLPRPRPRPKGKPRP | -0.215
RRIRSRPPRLPRPRPRPSDVPRP | -0.221
RRIRKRPPRLPRPRPRPFTIPRP | 0.0665
RRIRHRPPRLPRPRPRPDRLPRP | -0.0627
RRIRMRPPRLPRPRPRPWVHPRP | 0.031
RRIRCRPPRLPRPRPRPCVWPRP | -0.013
RRIRFRPPRLPRPRPRPYNHPRP | -1.2
RRIRCRPPRLPRPRPRPPVGPRP | 0.414
RRIRHRPPRLPRPRPRPYRDPRP | -0.0135
RRIRQRPPRLPRPRPRPQVLPRP | 0.00177
RRIRNRPPRLPRPRPRPTKFPRP | -0.607
RRIRSRPPRLPRPRPRPWSNPRP | -0.0394
RRIRKRPPRLPRPRPRPMRHPRP | 0.0303
RRIRARPPRLPRPRPRPVQRPRP | 0.615
RRIRPRPPRLPRPRPRPMAVPRP | 0.0404
RRIRQRPPRLPRPRPRPCYWPRP | -0.229
RRIRFRPPRLPRPRPRPGWKPRP | 0.208
RRIRKRPPRLPRPRPRPRCQPRP | 0.099
RRIRPRPPRLPRPRPRPNYMPRP | -0.737

Sequence | shrunken log2 fold change
RRIRVRPPRLPRPRPRPSNVPRP | -0.139
RRIRARPPRLPRPRPRPEHTPRP | 0.0124
RRIRPRPPRLPRPRPRPCMCPRP | -0.0305
RRIRPRPPRLPRPRPRPWFEPRP | -0.261
RRIRPRPPRLPRPRPRPFQVPRP | -0.0122
RRIRVRPPRLPRPRPRPGLSPRP | 0.32
RRIRDRPPRLPRPRPRPMMVPRP | 0.0541
RRIRRRPPRLPRPRPRPYHKPRP | -0.535
RRIRRRPPRLPRPRPRPWYAPRP | -0.0635
RRIRGRPPRLPRPRPRPHDNPRP | 0.174
RRIRGRPPRLPRPRPRPRDEPRP | 0.293
RRIRSRPPRLPRPRPRPDFDPRP | 0.0818
RRIRKRPPRLPRPRPRPLFYPRP | -0.0645
RRIRMRPPRLPRPRPRPTTDPRP | 0.815
RRIRMRPPRLPRPRPRPTCWPRP | 0.816
RRIRPRPPRLPRPRPRPHDPPRP | 0.192
RRIRFRPPRLPRPRPRPFWHPRP | 0.041
RRIRVRPPRLPRPRPRPPEVPRP | 0.0599
RRIRKRPPRLPRPRPRPKSPPRP | 0.385
RRIRARPPRLPRPRPRPGEQPRP | 0.135
RRIRWRPPRLPRPRPRPTREPRP | 0.241
RRIRARPPRLPRPRPRPKWFPRP | 0.053

Sequence | shrunken log2 fold change
RRIRGRPPRLPRPRPRPFRTPRP | -0.0333
RRIRQRPPRLPRPRPRPQTWPRP | 0.126
RRIRTRPPRLPRPRPRPGWIPRP | -0.154
RRIRHRPPRLPRPRPRPYKAPRP | -0.484
RRIRHRPPRLPRPRPRPVVWPRP | 0.524
RRIRFRPPRLPRPRPRPTGWPRP | 0.456
RRIRSRPPRLPRPRPRPGMMPRP | 0.227
RRIRCRPPRLPRPRPRPCHMPRP | -0.443
RRIRVRPPRLPRPRPRPQKTPRP | 0.0603
RRIRIRPPRLPRPRPRPSIWPRP | -0.0823
RRIRYRPPRLPRPRPRPNKDPRP | -1.01
RRIRYRPPRLPRPRPRPHNFPRP | -0.118
RRIRIRPPRLPRPRPRPSPRPRP | -0.0771
RRIRARPPRLPRPRPRPEAFPRP | 0.0217
RRIRTRPPRLPRPRPRPRQKPRP | 0.0911
RRIRQRPPRLPRPRPRPQTHPRP | -0.293
RRIRPRPPRLPRPRPRPECPPRP | 0.353
RRIRIRPPRLPRPRPRPMQDPRP | -0.223
RRIRFRPPRLPRPRPRPYTIPRP | 0.0439
RRIRQRPPRLPRPRPRPYSYPRP | -0.337
RRIRIRPPRLPRPRPRPLVWPRP | 0.0428
RRIRHRPPRLPRPRPRPKYMPRP | -0.746

Sequence | shrunken log2 fold change
RRIRYRPPRLPRPRPRPRYWPRP | -0.317
RRIRVRPPRLPRPRPRPIRCPRP | -0.0498
RRIRPRPPRLPRPRPRPNCMPRP | -0.16
RRIRTRPPRLPRPRPRPACPPRP | 0.178
RRIRDRPPRLPRPRPRPKCCPRP | 0.112
RRIRQRPPRLPRPRPRPCQQPRP | -0.0108
RRIRLRPPRLPRPRPRPCYRPRP | -0.145
RRIRCRPPRLPRPRPRPQAKPRP | 0.31
RRIRSRPPRLPRPRPRPGHDPRP | -0.0796
RRIRCRPPRLPRPRPRPNVKPRP | -0.482
RRIRYRPPRLPRPRPRPAKIPRP | -0.0227
RRIRQRPPRLPRPRPRPFVAPRP | 0.0106
RRIRGRPPRLPRPRPRPISFPRP | 0.0122
RRIRKRPPRLPRPRPRPQWDPRP | 0.00929
RRIRCRPPRLPRPRPRPTMCPRP | -0.755
RRIRGRPPRLPRPRPRPCWCPRP | 0.171
RRIRIRPPRLPRPRPRPIFQPRP | -0.378
RRIRGRPPRLPRPRPRPAHAPRP | 1.06
RRIRVRPPRLPRPRPRPIQCPRP | 0.078
RRIRIRPPRLPRPRPRPPSMPRP | -0.206
RRIRWRPPRLPRPRPRPHHHPRP | -0.428
RRIRLRPPRLPRPRPRPWQRPRP | -0.161

Sequence | shrunken log2 fold change
RRIRVRPPRLPRPRPRPPVVPRP | -0.0362
RRIRRRPPRLPRPRPRPMFLPRP | 0.0789
RRIRDRPPRLPRPRPRPMIWPRP | -0.0952
RRIRMRPPRLPRPRPRPHGVPRP | 0.023
RRIRMRPPRLPRPRPRPHPHPRP | 0.187
RRIRLRPPRLPRPRPRPFIRPRP | -0.245
RRIRDRPPRLPRPRPRPPKPPRP | 0.214
RRIRWRPPRLPRPRPRPSCYPRP | -0.122
RRIRTRPPRLPRPRPRPFVVPRP | -0.266
RRIRDRPPRLPRPRPRPQPWPRP | 0.11
RRIRDRPPRLPRPRPRPTHKPRP | -0.0994
RRIRKRPPRLPRPRPRPWDKPRP | -0.0876
RRIRWRPPRLPRPRPRPLCCPRP | 0.0117
RRIRTRPPRLPRPRPRPDPKPRP | 0.113
RRIRQRPPRLPRPRPRPLSGPRP | -0.252
RRIRPRPPRLPRPRPRPWGIPRP | -0.0138
RRIRMRPPRLPRPRPRPYAHPRP | 0.013
RRIRARPPRLPRPRPRPHERPRP | 0.0956
RRIRRRPPRLPRPRPRPVKIPRP | 0.266
RRIRTRPPRLPRPRPRPMVTPRP | 0.06
RRIRFRPPRLPRPRPRPPNHPRP | -0.0407
